Target: T1, human full-length Sirt1 (fl-Sirt1) (Homo sapiens, UniProt Q96EB6)
T1 construct: human full-length Sirt1 (fl-Sirt1) in pET-15b; made in house; host or cells: E. coli CodonPlus(DE3)
T1 sequence (Q96EB6 1-747): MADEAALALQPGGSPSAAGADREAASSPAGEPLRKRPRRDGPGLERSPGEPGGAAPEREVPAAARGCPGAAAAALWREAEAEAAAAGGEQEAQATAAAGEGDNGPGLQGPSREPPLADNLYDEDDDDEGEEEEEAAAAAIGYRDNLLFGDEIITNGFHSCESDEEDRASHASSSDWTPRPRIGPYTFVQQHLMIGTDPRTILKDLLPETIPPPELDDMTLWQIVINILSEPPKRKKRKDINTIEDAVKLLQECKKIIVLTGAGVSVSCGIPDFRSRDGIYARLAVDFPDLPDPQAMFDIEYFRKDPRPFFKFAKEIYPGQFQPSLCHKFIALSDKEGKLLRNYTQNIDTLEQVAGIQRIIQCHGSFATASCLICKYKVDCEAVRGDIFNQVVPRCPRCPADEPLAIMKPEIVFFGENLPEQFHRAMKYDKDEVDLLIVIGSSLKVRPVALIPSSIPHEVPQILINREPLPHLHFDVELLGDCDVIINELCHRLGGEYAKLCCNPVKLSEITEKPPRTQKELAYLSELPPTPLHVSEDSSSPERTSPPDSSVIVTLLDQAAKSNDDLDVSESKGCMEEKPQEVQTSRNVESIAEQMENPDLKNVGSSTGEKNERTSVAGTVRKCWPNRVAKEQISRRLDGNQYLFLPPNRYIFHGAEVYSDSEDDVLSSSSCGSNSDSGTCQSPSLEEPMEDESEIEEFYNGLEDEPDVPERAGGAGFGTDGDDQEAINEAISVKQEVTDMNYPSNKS
Assay: FdL deacetylation assay, fl-Sirt1
Format: biochemical
Settings: FdL assay, 100 µM FdL-1, 500 µM NAD^+, pH 7.8, 37 °C; n = 2; read-out: IC50, fl-Sirt1, truncated Tat-Cys^− constructs
Text: A human mini-Sirt1 construct (aa 183-505-(GGGS)2-641-665), as described in [27], was generated in a modified pET-19b with a TEV cleavage site. This construct and human full-length Sirt1 (fl-Sirt1) in pET-15b, Sirt1-(183-664) and Sirt1-(214-664) in pET-15b, mini-Sirt1-∆SBD (aa 214-505-(GGGS)2-641-665) and mini-Sirt1-∆ESA (aa 183–505) in a modified pET-19b with TEV cleavage site, Sirt2-(43-356) in a modified pET-19b with a His6-Sumo tag, Sirt3-(93-399) in a modified pET-32a with Trx-His6 tag and TEV cleavage site, hSirt3-(118-399) in pVFT3S (Sungkyunkwan University, Seoul, Republic of Korea) with His6-Trx tag and TEV cleavage site, Sirt5-(34-302) in pET-151/D-TOPO, and Sirt6-(1-355) in pQE80L.1 were purified as described. Shortly, proteins were expressed at 20 °C (mini-Sirt1 constructs at 16 °C) in E. coli CodonPlus(DE3), cell lysates were cleared by centrifugation, and proteins were purified via affinity chromatography using a nickel NTA column. After digestion with thrombin or TEV protease, proteins were re-run over the nickel NTA column, pooled, and concentrated. The samples were, then, subjected either directly to size exclusion chromatography in 50 mM Tris/HCl, pH 8.0, 150 mM NaCl, 1 mM TCEP, or to an ion exchange chromatography followed by size exclusion chromatography. […]

B1: Tat-Cys^− residues 1–63: C-terminally shortened Tat-Cys^− construct, residues 1–63 (protein)
chain: MDPVDPNIEPWNHPGSQPKTASNRAHAKKSAYHSQVAFITKGLGISYGRKKRRQRRRPSQGGQ
- IC50: ~10 µM
